Drawing on PMC9722718, “Structural basis of sequence-specific RNA recognition by the antiviral factor APOBEC3G”, this text covers binding result and Kd for six molecules.

The target in data set [1] is T1, rA3GR8/E259A (Macaca mulatta (rhesus macaque), UniProt M1GSK9 1-138+=AEAG+147-383, E259A;internal_change). Briefly: X-ray crystallography; 1:1; EMSA: 10 nM 6-FAM RNA, 50 mM HEPES pH 7.5, 250 mM NaCl, 1 mM DTT, 0.4 U/ul RNase inhibitor, 10% glycerol, on ice 10 min, 8% native PAGE at 4 C. The settings on record: protein: recombinant; tags: 6xHis-SUMO removed by PreScission protease; single strand.

Another data set deals with rA3GR8 (Macaca mulatta (rhesus macaque), UniProt M1GSK9 1-138+=AEAG+147-383, internal_change). Briefly: EMSA; EMSA: 10 nM 6-FAM RNA, 50 mM HEPES pH 7.5, 250 mM NaCl, 1 mM DTT, 0.4 U/ul RNase inhibitor, 10% glycerol, on ice 10 min, 8% native PAGE at 4 C. The settings on record: protein: recombinant; tags: 6xHis-SUMO removed by PreScission protease; label: 6-FAM; single strand.

In data set [2] the target is T1, rA3GR8/E259A. Briefly: X-ray crystallography; 1.83 A; 1:1; EMSA: 10 nM 6-FAM RNA, 50 mM HEPES pH 7.5, 250 mM NaCl, 1 mM DTT, 0.4 U/ul RNase inhibitor, 10% glycerol, on ice 10 min, 8% native PAGE at 4 C. The settings on record: protein: recombinant; tags: 6xHis-SUMO removed by PreScission protease; single strand.
The target in the next data set is GST-NCp7 (HIV-1, UniProt P04591 378-432). Briefly: EMSA; best binder; EMSA: 10 nM 6-FAM RNA, 50 mM HEPES pH 7.5, 250 mM NaCl, 1 mM DTT, 0.4 U/ul RNase inhibitor, 10% glycerol, on ice 10 min, 8% native PAGE at 4 C. Particulars: protein: recombinant; tags: N-terminal GST; label: 6-FAM; single strand.

rA3GR8, sequence (M1GSK9 entry or part of it): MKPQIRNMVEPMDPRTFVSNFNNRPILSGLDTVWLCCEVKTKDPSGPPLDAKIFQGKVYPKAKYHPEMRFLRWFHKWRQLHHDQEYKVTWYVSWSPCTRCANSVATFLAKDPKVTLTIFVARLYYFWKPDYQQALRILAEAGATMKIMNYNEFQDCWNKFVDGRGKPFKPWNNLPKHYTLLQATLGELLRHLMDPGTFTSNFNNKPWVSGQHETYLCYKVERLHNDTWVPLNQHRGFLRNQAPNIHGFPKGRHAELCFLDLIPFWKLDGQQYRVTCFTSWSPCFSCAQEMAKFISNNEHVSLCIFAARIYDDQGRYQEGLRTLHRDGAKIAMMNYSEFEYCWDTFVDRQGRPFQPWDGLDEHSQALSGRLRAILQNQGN
T1 sequence (M1GSK9 entry or part of it E259A/| E259A E259A): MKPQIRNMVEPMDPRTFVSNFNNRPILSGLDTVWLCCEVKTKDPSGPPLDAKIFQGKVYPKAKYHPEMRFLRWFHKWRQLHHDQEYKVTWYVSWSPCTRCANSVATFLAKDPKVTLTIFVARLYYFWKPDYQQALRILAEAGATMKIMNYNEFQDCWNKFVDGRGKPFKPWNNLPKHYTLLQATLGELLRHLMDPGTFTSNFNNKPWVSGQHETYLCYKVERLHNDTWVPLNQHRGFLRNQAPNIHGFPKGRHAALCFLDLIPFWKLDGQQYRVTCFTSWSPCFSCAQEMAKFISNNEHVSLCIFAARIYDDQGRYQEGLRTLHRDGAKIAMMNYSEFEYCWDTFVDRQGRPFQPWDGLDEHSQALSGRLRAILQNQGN

As to UUUUAAUUUU (ssRNA) [RNA3-AAxtal], in the data set with rA3GR8/E259A [1], the binding result was “binds”.

With UUUUAGUUUU (ssRNA) [RNA3-AG], in the data set with rA3GR8, the Kd turned out to be 200 nM.

UUUUGAUUUU (ssRNA) [RNA3-GAxtal]: the binding result with rA3GR8/E259A [2] is “binds”.

Regarding UUUUGGUUUU (ssRNA) [RNA3-GG], the binding result in the data set with GST-NCp7 is listed as “binds”.

Take UUUUGAUUUU (ssRNA) [RNA3-GA]: the Kd with rA3GR8 was 47 nM.

With UUUUAAUUUU (ssRNA) [RNA3-AA], in the data set with rA3GR8, the Kd was determined as 10 nM.
